Our source for the EC50 values is patent publication CN112250763A (SANYOU BIOPHARMACEUTICALS SHANGHAI CO LTD; SHANGHAI ZJ BIO …, dated 2021).

For the assay, the target named is S蛋白RBD-His(319Arg-532Asn) (SARS-CoV-2, UniProt P0DTC2 319-532).

B1: R16-F10抗体 (antibody, V domains shown)
VH: QVQLVQSGPEVKEPGSSVKVSCKASGGTFDTAAISWVRQAPGQGPEWMGGIIPIFGTANYAQKFQGRVTITADESTSTAYMELSSLRSEDTAVYYCAREHTVAPVYGFDVWGQGTLVTVSS
VL: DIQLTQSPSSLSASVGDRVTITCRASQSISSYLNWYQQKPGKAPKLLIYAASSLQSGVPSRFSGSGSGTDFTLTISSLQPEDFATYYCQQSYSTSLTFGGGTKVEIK
As a reminder, the EC50 is the concentration that produces a half-maximal response. B1 returned an EC50 of 0.05 µg/mL.
